Measured values as given in publication PMC12149299 (2025).

Assays:
[1] = biological target: HIV-1 gp120 protein from the JRCSF.JB strain (HIV-1, UniProt P20871 32-503); test: BLI
[2] = biological target: HIV-1 gp120 protein from the YU2.DG strain (HIV-1, UniProt P35961 32-498); test: BLI

B1: FD22 (antibody)
chain 1: QVQLSQSGGGAVQPGKSLTLSCRAYGFHLFSYVVVWVRQTPQNGLEWVAGAASGGWPQEFMNSVRGRFSISRDDYTVSLQMNALRVDDSGLYFCAQERGLHRLDGAVKFGRWFRAWGQGSQVVVTS
chain 2: QSALTQPASVSGSPGQSITLSCTGADNSVSWYQVVPGRAPKLLIFEVNVRPSEVSDRFSGSKSGDTASLTISRLQIEDESDYYCVTRRGDVTYLFGSGTRVSVL
modifications: biotin (EZ-Link NHS-LC-Biotin) in the competition ELISA only | biotin (EZ-Link NHS-LC-Biotin) in the competition ELISA only
- Kd [1]: 18.1 nM
- Kd [2]: 12.1 nM
